Data as given in article doi:10.1101/2023.03.12.532276 (bioRxiv, 2023).

Biological target: the molecule itself
Experiment: SAXS with online size exclusion

B1: ELF3 PrLD Q7 (prion-like domain of EARLY FLOWERING 3, residues 388-625, 7 glutamines, ecotype Columbia) (domain or fragment)
chain: LLPSEFLVKPPLPHVVVKQRGDSEKTDQHKMESSAENVVGRLSNQGHHQQSNYMPFANNPPASPAPNGYCFPPQPPPSGNHQQWLIPVMSPSEGLIYKPHPGMAHTGHYGGYYGHYMPTPMVMPQYHPGMGFPPPGNGYFPPYGMMPTIMNPYCSSQQQQQQQPNEQMNQFGHPGNLQNTQQQQQRSDNEPAPQQQQQPTKSYPRARKSRQGSTGSSPSGPQGISGSKSFRPFAAVDE
  binding result: binds
